Experimental data reported in US20100239578A1.
Several values for one entry are separate records, joined by “and”; a condition that tells them apart may be missing. Equal entries are not always repeated.

Columns and labels:
[1] = molecular target: NOD-derived murine SIRPα (NOD allele of Sirpα) on NOD mouse macrophages (mouse (NOD strain)) (UniProt P97797); assay: graded hCD47-Fc on NOD macrophages pre-treated with a monoclonal antibody to the SIRPα ectodomain (clustered), anti-human Fc-HRP colorimetric read-out
UniProt P97797, sequence (P97797 32-513): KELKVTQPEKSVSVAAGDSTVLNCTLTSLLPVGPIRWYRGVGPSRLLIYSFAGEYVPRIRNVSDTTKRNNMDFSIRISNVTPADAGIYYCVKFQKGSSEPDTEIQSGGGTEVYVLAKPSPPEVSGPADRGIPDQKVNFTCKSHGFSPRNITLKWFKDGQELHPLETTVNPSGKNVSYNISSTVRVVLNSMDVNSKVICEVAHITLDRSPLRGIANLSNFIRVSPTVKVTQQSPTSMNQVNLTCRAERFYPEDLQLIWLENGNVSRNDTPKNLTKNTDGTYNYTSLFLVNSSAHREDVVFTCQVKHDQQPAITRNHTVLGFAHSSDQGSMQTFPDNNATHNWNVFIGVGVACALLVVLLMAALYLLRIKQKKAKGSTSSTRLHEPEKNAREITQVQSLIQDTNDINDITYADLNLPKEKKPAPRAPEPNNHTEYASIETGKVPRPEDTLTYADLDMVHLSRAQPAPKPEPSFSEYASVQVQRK

[2] = molecular target: NOD-derived murine SIRPα (NOD allele of Sirpα) on NOD mouse macrophages (mouse (NOD strain)) (UniProt P97797); assay: graded hCD47-Fc on NOD macrophages, clustered (anti-SIRPα mAb pre-treatment) against unclustered
[3] = molecular target: NOD-derived murine SIRPα (NOD allele of Sirpα) on NOD mouse macrophages (mouse (NOD strain)) (UniProt P97797); assay: graded hCD47-Fc on unmanipulated fresh NOD macrophages (unclustered), anti-human Fc-HRP colorimetric read-out
[4] = molecular target: NOD-derived murine SIRPα (NOD allele of Sirpα) on NOD mouse macrophages (mouse (NOD strain)) (UniProt P97797); assay: graded mCD47-Fc on adherent fresh macrophages, anti-human Fc-HRP colorimetric read-out

| Substance | Kd [1] | fold rise in affinity, clustered against unclustered [2] | Kd [3] | fold lower Kd than the NOR SIRPα-mCD47 interaction [4] |
| --- | --- | --- | --- | --- |
| human CD47 IgV domain fused to human IgG Fc (hCD47-Fc), made in 293F cells (from UniProt Q08722 19-135) (Fc fusion) | 0.16 nM | > 10 fold | 1.6 nM |  |
| Mouse CD47-Fc (mCD47-Fc) fusion protein (from UniProt Q61735 19-133) (Fc fusion) |  |  |  | 4.7 fold and > 4 fold |
